Measurements reported in patent publication US20230125550A1 (ARCELLX, published 2023).

T1: recombinant human CD123-Fc (human, UniProt P26951 19-305)
T1 construct: not shown: Fc part of CD123-Fc
T1 sequence: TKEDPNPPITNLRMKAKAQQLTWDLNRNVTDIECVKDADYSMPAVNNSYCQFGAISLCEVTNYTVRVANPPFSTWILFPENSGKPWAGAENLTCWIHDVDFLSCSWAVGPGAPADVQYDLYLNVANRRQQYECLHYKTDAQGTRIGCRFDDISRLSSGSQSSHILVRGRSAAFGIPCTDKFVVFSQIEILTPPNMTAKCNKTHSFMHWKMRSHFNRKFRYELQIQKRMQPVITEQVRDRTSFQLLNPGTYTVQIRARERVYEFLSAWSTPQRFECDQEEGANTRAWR

T2: AFP p26 (human, UniProt P02771 381-609)
T2 construct: The construct used is not described
T2 sequence: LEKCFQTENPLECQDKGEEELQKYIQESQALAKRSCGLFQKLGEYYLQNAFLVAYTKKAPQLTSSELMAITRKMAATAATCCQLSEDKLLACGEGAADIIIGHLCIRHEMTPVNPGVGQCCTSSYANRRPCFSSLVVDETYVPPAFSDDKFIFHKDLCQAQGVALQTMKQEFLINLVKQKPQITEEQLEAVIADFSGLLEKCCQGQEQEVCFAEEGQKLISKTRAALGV

B1: SEQ ID NO 627 (designed binder)
chain: MGSWYEFEQRLGAIEERLWALGGSEAELAAFEDIIAYFEYQLQSYKGKGNPEVEALDEEAWAIDDELWAYRHN
B2: SEQ ID NO 628 (designed binder)
chain: MGSWWEFEQRLDAIETRLWALGGSEAELAYFEHIIADFEDELQIYKGKGNPEVEALGWEAFAIDGELTAYRHN
B3: SEQ ID NO 629 (designed binder)
chain: MGSWFEFPYRLEAIEERLYALGGSEAELAQFEQFIAWFEMDLQDYKGKGNPEVEALWFEANAIVEELDAYRHN
B4: SEQ ID NO 630 (designed binder)
chain: MGSWVEFYDRLEAIEIRLWALGGSEAELADFESFIAHFEDDLQAYKGKGNPEVEALMDEANAIVFELDAYRHN
B5: SEQ ID NO 631 (designed binder)
chain: MGSWVEFWDRLDAIEERLWALGGSEAELAEFEFMIAMFEQHLQEYKGKGNPEVEALIPEAGAIDKELTAYRHN
B6: SEQ ID NO 632 (designed binder)
chain: MGSWDEFDARLWAIEERLWALGGSEAELAEFEFMIAAFEDVLQEYKGKGNPEVEALMGEANAIVMELDAYRHN
B7: SEQ ID NO 633 (designed binder)
chain: MGSWYEFWRRLDAIEERLWALGGSEAELAMFETDIAGFEWMLQLYKGKGNPEVEALEHEAWAINSELDAYRHN
B8: SEQ ID NO 634 (designed binder)
chain: MGSWHEFIWRLDAIEERLWALGGSEAELAWFETEIATFEAQLQDYKGKGNPEVEALEWEAIAIAWELDAYRHN
B9: SEQ ID NO 635 (designed binder)
chain: MGSWYEFYWRLEAIEERLWALGGSEAELAEFEKAIATFEDQLQTYKGKGNPEVEALETEALAIHAELEAYRHN
B10: SEQ ID NO 636 (designed binder)
chain: MGSWFEFQWRLEAIEDRLWALGGSEAELAEFETIIAGFEEQLQVYKGKGNPEVEALEEEAMAIQTELHAYRHN
B11: SEQ ID NO 637 (designed binder)
chain: MGSWWEFEDRLWAIEQRLDALGGSEAELAVFENSIAKFEDMLQVYKGKGNPEVEALHEEADAIIWELYAYRHN
B12: SEQ ID NO 638 (designed binder)
chain: MGSWWEFEDRLWAIDRRLMALGGSEAELAVFEQMIAHFEQILQVYKGKGNPEVEALHFEAHAIGMELAAYRHN
B13: SEQ ID NO 639 (designed binder)
chain: MGSWWEFLDRLEAIEYRLQALGGSEAELAVFEWEIAMFEDHLQGYKGKGNPEVEALHSEAHAIISELSAYRHN
B14: SEQ ID NO 640 (designed binder)
chain: MGSWAEFEDRLAAIERRLEALGGSEAELADFESSIAWFEPDLQYYKGKGNPEVEALMYEAEAIFSELYAYRHN
B15: SEQ ID NO 641 (designed binder)
chain: MGSWWEFYDRLTAIEARLWALGGSEAELADFEEGIADFEYDLQDYKGKGNPEVEALFWEAWAIQSELTAYRHN
B16: SEQ ID NO 642 (designed binder)
chain: MGSWYEFEDRLAAIEARLWALGGSEAELADFEEEIAYFEHGLQWYKGKGNPEVEALESEAMAIIDELHAYRHN
B17: SEQ ID NO 643 (designed binder)
chain: MGSWWEFSWRLEAIETRLDALGGSEAELAFFEMDIAWFEQDLQLYKGKGNPEVEALEEEAYAIYEELEAYRHN
B18: SEQ ID NO 644 (designed binder)
chain: MGSWEEFFFRLEAIDDRLYALGGSEAELALFEEVIAYFEQDLQWYKGKGNPEVEALYVEAYAIQEELYAYRHN
B19: SEQ ID NO 645 (designed binder)
chain: MGSWFEFEERLNAISWRLHALGGSEAELAYFEEDIAWFEDDLQFYKGKGNPEVEALENEAYAIWEELDAYRHN
B20: SEQ ID NO 646 (designed binder)
chain: MGSWFEFEERLEAIIYRLWALGGSEAELAMFEESIAWFESDLQQYKGKGNPEVEALEYEAMAISKELKAYRHN
B21: SEQ ID NO 647 (designed binder)
chain: MGSWAEFDDRLEAIEYRLHALGGSEAELAWFEEGIAGFEHALQSYKGKGNPEVEALETEAGAINEELWAYRHN
B22: SEQ ID NO 648 (designed binder)
chain: MGSWDEFEERLQAIEYRLWALGGSEAELAWFEEVIAQFEYDLQKYKGKGNPEVEALSTEAQAIQDELWAYRHN
B23: SEQ ID NO 649 (designed binder)
chain: MGSWWEFTDRLDAIFDRLWALGGSEAELAAFEESIAIFEQDLQYYKGKGNPEVEALEYEANAIQYELEAYRHN
B24: SEQ ID NO 650 (designed binder)
chain: MGSWWEFTDRLEAIEDRLWALGGSEAELAHFEDSIAQFEQELQWYKGKGNPEVEALADEADAIESELHAYRHN
B25: SEQ ID NO 651 (designed binder)
chain: MGSWVEFFWRLDAIEDRLWALGGSEAELANFEFEIADFEAWLQKYKGKGNPEVEALHSEADAIQLELRAYRHN
B26: SEQ ID NO 652 (designed binder)
chain: MGSWVEFYNRLDAIENRLWALGGSEAELAFFEELIAQFEFALQDYKGKGNPEVEALEDEADAIWEELMAYRHN
B27: SEQ ID NO 857 (designed binder)
chain: MGSWYTFKGSLAEIKNRLEALGGSEAELAMFESDIAWFEFMLQFYKGKGNPEVEALRKEAAAIRDELQAYRHN
B28: SEQ ID NO 858 (designed binder)
chain: MGSWFTFKDDLAQIKNRLEALGGSEAELANFEMSIAWFEFMLQYYKGKGNPEVEALRKEAAAIRDELQAYRHN
B29: SEQ ID NO 863 (designed binder)
chain: MGSWEIFKDDLASIKKVLEALGGSEAELALFESDIAWFELMLQYYKGKGNPEVEALRKEAAAIRDELQAYRHN
B30: SEQ ID NO 865 (designed binder)
chain: MGSWSVFKDDLAQIKDRLEALGGSEAELAQFELDIAWFEYVLQFYKGKGNPEVEALRKEAAAIRDELQAYRHN
B31: SEQ ID NO 866 (designed binder)
chain: MGSWAVFKDSLAHIKDVLEALGGSEAELALFEMDIAWFEYVLQDYKGKGNPEVEALRKEAAAIRDELQAYRHN
B32: SEQ ID NO 867 (designed binder)
chain: MGSWIAFKDHLAIIKQRLEALGGSEAELARFEFEIAWFEWMLQYYKGKGNPEVEALRKEAAAIRDELQAYRHN
B33: SEQ ID NO 868 (designed binder)
chain: MGSWIHFKNDLAVIKDELEALGGSEAELARFEIMIAWFEDALQWYKGKGNPEVEALRKEAAAIRDELQAYRHN
B34: SEQ ID NO 869 (designed binder)
chain: MGSWMVFKQDLAEIKANLEALGGSEAELADFEFAIAWFEYELQWYKGKGNPEVEALRKEAAAIRDELQAYRHN
B35: SEQ ID NO 870 (designed binder)
chain: MGSWKNFKLELALIKSKLEALGGSEAELAQFEADIAFFEWSLQWYKGKGNPEVEALRKEAAAIRDELQAYRHN
B36: SEQ ID NO 871 (designed binder)
chain: MGSWHSFKQDLAYIKYLLEALGGSEAELAQFEELIAFFEYYLQTYKGKGNPEVEALRKEAAAIRDELQAYRHN
B37: SEQ ID NO 872 (designed binder)
chain: MGSWVVFKSSLAQIKILLEALGGSEAELAIFEVKIAHFEQELQEYKGKGNPEVEALRKEAAAIRDELQAYRHN
B38: SEQ ID NO 873 (designed binder)
chain: MGSWDQFKNSLASIKRVLEALGGSEAELAIFEVKIAHFEHFLQQYKGKGNPEVEALRKEAAAIRDELQAYRHN
B39: SEQ ID NO 874 (designed binder)
chain: MGSWNNFKSSLASIKQVLEALGGSEAELAVFELQIAHFERELQYYKGKGNPEVEALRKEAAAIRDELQAYRHN

The binders below were run against T1, recombinant human CD123-Fc (assay: phage ELISA, A450 target/A450 IgG1-Fc).
Summary of the method: (§1)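 Phage were rescued in 96-well format with VCSM13 helper phage from individual phagemid colonies picked from panning output. Plates were coated with 1.3 microg/ml goat anti-human IgG1-Fc antibody, then 5 nM recombinant human target or IgG1-Fc, then 50 microl phage diluted 5× in ELISA blocking buffer. Binding was detected with HRP-conjugated anti-M13 antibody at 450 nm. The ELISA ratio is target over IgG1-Fc absorbance, averaged across all screened wells holding that clone.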
For B1, the ELISA_avg was 10.6 ratio. Work on B2 yielded an ELISA_avg of 4.7 ratio. B3 was tested, and the ELISA_avg was 3.1 ratio. In the case of B4, the ELISA_avg is reported as 4 ratio. In the case of B5, the ELISA_avg is reported as 10 ratio. In the case of B6, the ELISA_avg is reported as 4.3 ratio. For B7, the ELISA_avg was 3.6 ratio. With B8 the ELISA_avg was 3.3 ratio. In the case of B9, the ELISA_avg is reported as 3.7 ratio. In the case of B10, the ELISA_avg is reported as 3.4 ratio. Work on B11 yielded an ELISA_avg of 4.4 ratio. For B12, the ELISA_avg was 4.6 ratio. Work on B13 yielded an ELISA_avg of 3.1 ratio. B14 gave an ELISA_avg of 4.2 ratio. With B15 the ELISA_avg was 3.2 ratio. In the case of B16, the ELISA_avg is reported as 3.8 ratio. B17 was tested, and the ELISA_avg was 3.3 ratio. With B18 the ELISA_avg was 3.2 ratio. Binder B19 has an ELISA_avg of 13 ratio. B20 gave an ELISA_avg of 3.7 ratio. Binder B21 has an ELISA_avg of 5.8 ratio. Binder B22 has an ELISA_avg of 3.8 ratio. For B23, the ELISA_avg was 7.5 ratio. For B24, the ELISA_avg was 16.6 ratio. In the case of B25, the ELISA_avg is reported as 4 ratio. B26 was tested, and the ELISA_avg was 6.9 ratio.

Each binder was assayed against T2, AFP p26 (assay: phage ELISA, A450 target/A450 IgG1-Fc).
Summary of the method: as §1
With B27 the ELISA_avg was 32.3 ratio. For B28, the ELISA_avg was 30.8 ratio. Binder B29 has an ELISA_avg of 27.9 ratio. B30 showed an ELISA_avg of 30.3 ratio. Binder B31 has an ELISA_avg of 24.1 ratio. Binder B32 has an ELISA_avg of 29.9 ratio. Work on B33 yielded an ELISA_avg of 17.9 ratio. B34 was tested, and the ELISA_avg was 17.8 ratio. B35 gave an ELISA_avg of 20.6 ratio. B36 gave an ELISA_avg of 25.6 ratio. B37 showed an ELISA_avg of 8.6 ratio. B38 was tested, and the ELISA_avg was 15.6 ratio. B39 was tested, and the ELISA_avg was 24.1 ratio.
